From patent publication US20230302148A1, “PHARMACEUTICAL COMPOSITION COMPRISING LONG-ACTING CONJUGATE OF TRIPLE GLUCAGON/GLP-1/GIP RECEPTOR AGONIST” (HANMI PHARM. CO., LTD., priority 2020, published 2023)
Bridges are numbered along the chain shown (N, C = ends). Where no end group is shown, it is not given here. [ ]: non-standard residue; d: D form. The star is where a group is joined. Acetyl(2-(4-imidazolyl)) = O=C(Cc1c[nH]cn1)*; Aib = CC(C)(N)C(=O)O

T1: human GIP receptor (human, UniProt P48546 22-466)
T1 sequence (looked up): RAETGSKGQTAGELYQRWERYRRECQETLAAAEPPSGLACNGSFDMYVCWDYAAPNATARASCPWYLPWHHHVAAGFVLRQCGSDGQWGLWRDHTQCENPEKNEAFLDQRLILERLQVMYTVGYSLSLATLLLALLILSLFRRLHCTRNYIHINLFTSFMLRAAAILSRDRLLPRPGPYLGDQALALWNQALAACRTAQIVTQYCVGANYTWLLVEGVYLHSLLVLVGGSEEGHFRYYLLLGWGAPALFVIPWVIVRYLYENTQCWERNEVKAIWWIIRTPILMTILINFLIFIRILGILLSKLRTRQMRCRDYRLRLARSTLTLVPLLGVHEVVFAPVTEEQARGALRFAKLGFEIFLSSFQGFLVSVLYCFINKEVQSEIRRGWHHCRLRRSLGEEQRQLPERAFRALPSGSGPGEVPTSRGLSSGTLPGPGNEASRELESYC


Experiments:
Assay in all cases: cell-based or functional assay
human GCG receptor = human GCG receptor (human, UniProt P47871 26-477)
human GIP receptor = target: T1, human GIP receptor
human GLP-1 receptor = human GLP-1 receptor (human, UniProt P43220 24-463)

Sequence of human GCG receptor (P47871 26-477): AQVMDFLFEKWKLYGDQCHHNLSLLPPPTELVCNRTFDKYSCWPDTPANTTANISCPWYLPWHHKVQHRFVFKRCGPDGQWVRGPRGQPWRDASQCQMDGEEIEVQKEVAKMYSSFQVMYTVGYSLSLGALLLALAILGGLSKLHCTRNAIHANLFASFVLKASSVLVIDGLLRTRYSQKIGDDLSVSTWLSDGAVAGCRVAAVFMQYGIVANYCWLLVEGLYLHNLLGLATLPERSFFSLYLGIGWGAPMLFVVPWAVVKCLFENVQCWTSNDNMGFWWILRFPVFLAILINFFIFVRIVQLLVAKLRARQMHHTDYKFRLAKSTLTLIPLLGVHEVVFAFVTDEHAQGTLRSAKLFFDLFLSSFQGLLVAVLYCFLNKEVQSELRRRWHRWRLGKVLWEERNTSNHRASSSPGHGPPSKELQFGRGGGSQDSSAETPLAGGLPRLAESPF

| Binder | In vitro activity relative to native peptide (%) vs. Glucagon (human GCG receptor) [%] | In vitro activity relative to native peptide (%) vs. GIP (human GIP receptor) [%] | In vitro activity relative to native peptide (%) vs. GLP-1 (human GLP-1 receptor) [%] |
| --- | --- | --- | --- |
| {Acetyl(2-(4-imidazolyl))}-[Aib]EGTFTSDYSIAMDEIHQKDFVDWLLAEKC (bridge 15-19) [triple agonist of SEQ ID NO: 91] | 16.8 | 0.3 | 31.9 |
| {Acetyl(2-(4-imidazolyl))}-[Aib]QGTFTSDYSIAMDEIHQKDFVNWLLNTC (bridge 15-19) [triple agonist of SEQ ID NO: 87] | < 0.1 | < 0.1 | 0.9 |
| {Acetyl(2-(4-imidazolyl))}-[Aib]QGTFTSDYSIAMDEIHQKDFVNWLLAQKC (bridge 15-19) [triple agonist of SEQ ID NO: 92] | < 0.1 | 0.4 | 0.8 |
| H[Aib]QGTFTSDVSKYLDGQAAQEFVAWLLAGC [triple agonist of SEQ ID NO: 9] | 0.13 | < 0.1 | 32.1 |
| {Acetyl(2-(4-imidazolyl))}-[Aib]QGTFTSDYSIAMDEIHQKDFVNWLLAQC (bridge 15-19) [triple agonist of SEQ ID NO: 85] | < 0.1 | 0.3 | 4.3 |
| {Acetyl(2-(4-imidazolyl))}-[Aib]EGTFTSDYSIAMDEIHQKDFVNWLLAQKC (bridge 15-19) [triple agonist of SEQ ID NO: 90] | < 0.1 | < 0.1 | 7.4 |
| H[Aib]EGTFTSDYSIAMDEIHQKDFVNWLLAQKC (bridge 16-20) [triple agonist of SEQ ID NO: 79] | 4.9 | 1.4 | 41.5 |
| Y[Aib]QGTFTSDYSKYLDEKRAKEFVQWLLDHCPSSGQPPPS (bridge 16-20) [triple agonist of SEQ ID NO: 96] | 195 | 5.2 | 34.4 |
| Y[Aib]QGTFTSDYSKYLDEKAAKEFVQWLLDHHPSSGQPPPSC (bridge 16-20) [triple agonist of SEQ ID NO: 75] | 8.5 | 18 | 35.1 |
| {Acetyl(2-(4-imidazolyl))}-[Aib]EGTFTSDYSIAMDEIHQKDFVNWLLAQC (bridge 15-19) [triple agonist of SEQ ID NO: 83] | 1.3 | 0.4 | 47.3 |
| {Acetyl(2-(4-imidazolyl))}-[Aib]QGTFTSDYSKYLDEKRQKEFVNWLLAQC (bridge 15-19) [triple agonist of SEQ ID NO: 86] | 0.4 | 0.2 | 28.4 |
| Y[Aib]QGTFTSDYSKYLDEKRAKEFVQWLLCHHPSSGQPPPS (bridge 16-20) [triple agonist of SEQ ID NO: 95] | 0.4 | < 0.1 | 2.1 |
| H[Aib]QGTFTSDVSKYLDGQAAQEFVAWLLAGGGPSSGAPPPSC [triple agonist of SEQ ID NO: 10] | < 0.1 | < 0.1 | 46 |
| {Acetyl(2-(4-imidazolyl))}-[Aib]QGTFTSDYSKYLDEKRQKEFVQWLLDTKC (bridge 15-19) [triple agonist of SEQ ID NO: 89] | 0.7 | < 0.1 | 7.1 |
| H[Aib]EGTFTSDYSIAMDEIHQKDFVDWLLAEKC (bridge 16-20) [triple agonist of SEQ ID NO: 80] | 0 | 0.1 | 8.1 |
| {Acetyl(2-(4-imidazolyl))}-[Aib]QGTFTSDYSKYLDEKRQKEFVQWLLNTC (bridge 15-19) [triple agonist of SEQ ID NO: 81] | 0.3 | < 0.1 | 7.8 |
| H[Aib]QGTFTSDYSKYLDEKRQKEFVQWLLDTKC (bridge 16-20) [triple agonist of SEQ ID NO: 78] | 14 | 0.12 | 51 |
| Y[Aib]QGTFTSDYSKALDEKAAKEFVNWLLDHHPSSGQPPPSC (bridge 16-20) [triple agonist of SEQ ID NO: 98] | 8.2 | 47.1 | 28.1 |
| {Acetyl(2-(4-imidazolyl))}-[Aib]QGTFTSDYSKYLDEKRQKEFVNWLLAQKC (bridge 15-19) [triple agonist of SEQ ID NO: 93] | 0.3 | 0.7 | 5.7 |
| {Acetyl(2-(4-imidazolyl))}-[Aib]QGTFTSDYSIAMDEIHQKDFVNWLLNTKC (bridge 15-19) [triple agonist of SEQ ID NO: 94] | < 0.1 | < 0.1 | 0.5 |
| {Acetyl(2-(4-imidazolyl))}-[Aib]QGTFTSDYSKYLDEKRQKEFVQWLLNTKC (bridge 15-19) [triple agonist of SEQ ID NO: 88] | 0.3 | < 0.1 | 9.6 |
| {Acetyl(2-(4-imidazolyl))}-[Aib]EGTFTSDYSIAMDEIHQKDFVDWLLAEC (bridge 15-19) [triple agonist of SEQ ID NO: 84] | < 0.1 | < 0.1 | 4.2 |
| Y[Aib]QGTFTSDYSKYLDEKRAKDFVQWLLDHHPSSGQPPPSC (bridge 16-20) [triple agonist of SEQ ID NO: 76] | 47.6 | 11.7 | 10.3 |
| Y[Aib]QGTFTSDYSKYLDEKAAKDFVQWLLDHHPSSGQPPPSC (bridge 16-20) [triple agonist of SEQ ID NO: 77] | 12.2 | 35.5 | 38.7 |
| {Acetyl(2-(4-imidazolyl))}-[Aib]QGTFTSDYSKYLDEKRQKEFVQWLLDTC (bridge 15-19) [triple agonist of SEQ ID NO: 82] | 1.1 | < 0.1 | 9.5 |
